{"source": "paper PMC5899157", "about": "“Directed evolution of broadly crossreactive chemokine-blocking antibodies efficacious in arthritis” (Nature Communications, 2018)", "binders": {"B1": {"name": "CK129 single-chain variable antibody fragment, displayed on yeast (scFv, V domains shown)", "VH": "EVQLVESGGGLVQPGGSLRLSCAASGFNISSYGSMHWVRQAPGKGLEWVASIYPYSSSTYYADSVKGRFTISADTSKNTAYLQMNSLRAEDTAVYYCARGYGPWYAYSYFALDYWGQGTLVTVSS", "VL": "DIQMTQSPSPLSASVGDRVTITCRASQYGGYVAWYQQKPGKAPKLLIYGASLLYSGVPSRFSGGRSGTDFTLTISSLQPEDFATYYCQRGHALITFGQGTKVEIE", "notes": "VL of CK129 (CK4 lineage, synthetic library G); flexible linker between VL and VH; VH of CK129; Construct Aga2p-HA-(G4S)3-VL-linker-VH-c-myc; VL-VH orientation; not shown: Aga2p, N-terminal, kept; HA, N-terminal, kept; c-myc, C-terminal, kept"}, "B2": {"name": "SA129, mouse serum albumin fused to the CK129 single-chain variable antibody fragment (scFv, V domains shown)", "VH": "B1 VH", "VL": "B1 VL", "notes": "VL of CK129, as in m1; linker between VL and VH; the scFv was amplified from the pCT-CON vector; VH of CK129, as in m1; Construct SA-(G4S)3-scFv-G4S-His6; also called ^NSA-scFv^C; source: HEK293 (suspension-adapted), transient transfection, purified (Ni Sepharose excel, SEC); not shown: mouse serum albumin, N-terminal, kept; His6, C-terminal, kept"}, "B3": {"name": "SA138, mouse serum albumin fused to the CK138 single-chain variable antibody fragment (scFv, V domains shown)", "VH": "EVQLVESDGGLVQPGGSLRLSCAASGFNLSYYGMHWVRQAPGKGLEWVAYIASYPGYTSYADSVKGRFTISADTSKNTAYLQMNSLRAEDTAVYYCARSGYSYSPYYSWFSAGMNYWGQGALVTVSS", "VL": "AIQMTRSPSSLSASVGDRVTITCRASQYHDGSAAWYQQKPGKAPKLLIYGASYLYSGVPSRFSGSRSGTDFTLTISSLQPEDFATYYCQQSSYSLITFGQGTKVEIK", "notes": "VL of CK138, as in m2; linker between VL and VH; the scFv was amplified from the pCT-CON vector; VH of CK138, as in m2; Construct SA-(G4S)3-scFv-G4S-His6; also called ^NSA-scFv^C; source: HEK293 (suspension-adapted), transient transfection, purified (Ni Sepharose excel, SEC); not shown: mouse serum albumin, N-terminal, kept; His6, C-terminal, kept"}, "B4": {"name": "SA157*, separate mouse serum albumin fusions of the VL and VH domains of CK157 mixed in equimolar amounts (other)", "VH": "EVQLVESGGGLVQPGGSLRLSCAASGSNPYYYGGTHWVRQAPGEELEWVASIGSYPGYTDYADSVKGRFTISADTSKNTAYLQMNSLRAEDTAVYYCARHYYWYDATDYWGQGTLVTVSS", "VL": "DIQMTQSPSSLSASVGDRVTITCRASQSYGGVAWYQQKPGKAPKLLIYSASYLYSGVPSRFSGSRSGTDFTLTISSLQPEDFATYYCQQPSHLITFGQGTEVEIK", "notes": "VL of CK157, as in m3; VH of CK157, as in m3; Constructs SA-(G4S)3-VL-G4S-His6 and SA-(G4S)3-VH-G4S-His6; not a single chain with a linker; also called ^NSA-VL^C and ^NSA-VH^C; not shown: mouse serum albumin, N-terminal, kept; His6, C-terminal, kept"}, "B5": {"name": "CK157 single-chain variable antibody fragment, displayed on yeast (scFv, V domains shown)", "VH": "B4 VH", "VL": "B4 VL", "notes": "VL of CK157 (CK2 lineage, made by combinatorial site-directed mutagenesis); flexible linker between VL and VH; VH of CK157; Construct Aga2p-HA-(G4S)3-VL-linker-VH-c-myc; VL-VH orientation; not shown: Aga2p, N-terminal, kept; HA, N-terminal, kept; c-myc, C-terminal, kept"}}, "key": {"[1]": {"molecular_target": "T1, hCXCL1 fused to the N-terminus of mouse serum albumin (human, UniProt P09341)", "T1 construct": "human CXCL1, active protein form; CXCL-SA fusions eluted as dimers to tetramers on SEC; also called ^NCXCL-SA^C; source: HEK293 (suspension-adapted), transient transfection, purified (Ni Sepharose excel, SEC); not shown: mouse serum albumin, C-terminal, kept; His6, C-terminal, kept", "experiment": "flow cytometry on cells; scFv displayed on yeast (Aga2p fusion) titrated with soluble CXCL-SA fusions bearing His6, 10 pM to 2 μM, overnight at 4 °C, PBSA washes, anti-His6 detection, binding/display MFI", "conditions": "one partner purified"}, "[2]": {"molecular_target": "T2, mCXCL1 fused to the N-terminus of mouse serum albumin (mouse, UniProt P12850)", "T2 construct": "murine CXCL1, active protein form; also called ^NCXCL-SA^C; source: HEK293 (suspension-adapted), transient transfection, purified (Ni Sepharose excel, SEC); not shown: mouse serum albumin, C-terminal, kept; His6, C-terminal, kept", "experiment": "flow cytometry on cells; scFv displayed on yeast (Aga2p fusion) titrated with soluble CXCL-SA fusions bearing His6, 10 pM to 2 μM, overnight at 4 °C, PBSA washes, anti-His6 detection, binding/display MFI", "conditions": "one partner purified"}, "[3]": {"molecular_target": "T3, mCXCL3 displayed on the surface of yeast as N-terminal fusion of Aga2p (mouse, UniProt Q6W5C0)", "T3 construct": "murine CXCL3, active processed form; Construct CXCL-(G3)-c-myc-Aga2p; also called ^NCXCL-Aga2p^C; not shown: c-myc, C-terminal, kept; Aga2p, C-terminal, kept", "experiment": "flow cytometry on cells; CXC chemokine displayed on yeast (CXCL-Aga2p) titrated with soluble SA-antibody fusions bearing His6, 10 pM to 20 μM, overnight at 4 °C, PBSA washes, anti-His6 detection, binding/display MFI", "conditions": "one partner purified"}, "[4]": {"molecular_target": "T4, wild-type hCXCL1 displayed on the surface of yeast as N-terminal fusion of Aga2p (human, UniProt P09341)", "T4 construct": "human CXCL1, active processed form; Construct CXCL-(G3)-c-myc-Aga2p; also called hCXCL1^WT; ^NhCXCL1^WT-Aga2p^C; not shown: c-myc, C-terminal, kept; Aga2p, C-terminal, kept", "experiment": "flow cytometry on cells; CXC chemokine displayed on yeast (CXCL-Aga2p) titrated with soluble SA-antibody fusions bearing His6, 10 pM to 20 μM, overnight at 4 °C, PBSA washes, anti-His6 detection, binding/display MFI", "conditions": "one partner purified"}, "[5]": {"molecular_target": "T5, mCXCL1 displayed on the surface of yeast as N-terminal fusion of Aga2p (mouse, UniProt P12850)", "T5 construct": "murine CXCL1, active processed form; Construct CXCL-(G3)-c-myc-Aga2p; also called ^NCXCL-Aga2p^C; not shown: c-myc, C-terminal, kept; Aga2p, C-terminal, kept", "experiment": "flow cytometry on cells; CXC chemokine displayed on yeast (CXCL-Aga2p) titrated with soluble SA-antibody fusions bearing His6, 10 pM to 20 μM, overnight at 4 °C, PBSA washes, anti-His6 detection, binding/display MFI", "conditions": "one partner purified"}, "[6]": {"molecular_target": "T6, mCXCL2 displayed on the surface of yeast as N-terminal fusion of Aga2p (mouse, UniProt P10889)", "T6 construct": "murine CXCL2, active processed form; Construct CXCL-(G3)-c-myc-Aga2p; also called ^NCXCL-Aga2p^C; not shown: c-myc, C-terminal, kept; Aga2p, C-terminal, kept", "experiment": "flow cytometry on cells; CXC chemokine displayed on yeast (CXCL-Aga2p) titrated with soluble SA-antibody fusions bearing His6, 10 pM to 20 μM, overnight at 4 °C, PBSA washes, anti-His6 detection, binding/display MFI", "conditions": "one partner purified"}, "[7]": {"molecular_target": "T7, mCXCL5 displayed on the surface of yeast as N-terminal fusion of Aga2p (mouse, UniProt P50228)", "T7 construct": "murine CXCL5, active processed form; Construct CXCL-(G3)-c-myc-Aga2p; also called ^NCXCL-Aga2p^C; not shown: c-myc, C-terminal, kept; Aga2p, C-terminal, kept", "experiment": "flow cytometry on cells; CXC chemokine displayed on yeast (CXCL-Aga2p) titrated with soluble SA-antibody fusions bearing His6, 10 pM to 20 μM, overnight at 4 °C, PBSA washes, anti-His6 detection, binding/display MFI", "conditions": "one partner purified"}, "[8]": {"molecular_target": "T8, biotinylated hCXCL8 (^NCXCL-G2-AviTag^C) (human, UniProt P10145, biotin on the defined lysine of the AviTag (BirA))", "T8 construct": "human CXCL8, active form; Which processed form of CXCL8 (72 or 77 residues) was made is only in Supplementary Data 1; not shown: AviTag, C-terminal, kept; Fc (murine IgG2 CH2 and CH3), N-terminal, cleaved; His6, N-terminal, cleaved", "experiment": "flow cytometry on cells; competition: biotinylated chemokine at its EC50 with varying antagonist (0.3 nM to 3 μM; 0.003 to 30 μM for SA157*) on HEK293 cells expressing CXCR1 or CXCR2; the antagonist and the chemokine", "conditions": "both partners purified"}, "[9]": {"molecular_target": "T9, CCL22 (human, UniProt O00626)", "T9 construct": "CC chemokine CCL22; Detected with streptavidin or anti-His6", "experiment": "flow cytometry on cells; polyreactivity test: scFv displayed on yeast, single concentration (2 μM) of soluble protein, detection with streptavidin or anti-His6", "conditions": "one partner purified"}, "[10]": {"molecular_target": "T10, CCL20 (Homo sapiens (assumed; species not …, UniProt P78556)", "T10 construct": "CC chemokine CCL20; Detected with streptavidin or anti-His6", "experiment": "flow cytometry on cells; polyreactivity test: scFv displayed on yeast, single concentration (2 μM) of soluble protein, detection with streptavidin or anti-His6", "conditions": "one partner purified"}, "[11]": {"molecular_target": "T11, CCL28 (human, UniProt Q9NRJ3)", "T11 construct": "CC chemokine CCL28; Detected with streptavidin or anti-His6", "experiment": "flow cytometry on cells; polyreactivity test: scFv displayed on yeast, single concentration (2 μM) of soluble protein, detection with streptavidin or anti-His6", "conditions": "one partner purified"}, "[12]": {"molecular_target": "T12, chemotactic factor C5a (Homo sapiens (assumed; species not …, UniProt P01031)", "T12 construct": "C5a, the chemotactic fragment cut from complement C5; Detected with streptavidin or anti-His6", "experiment": "flow cytometry on cells; polyreactivity test: scFv displayed on yeast, single concentration (2 μM) of soluble protein, detection with streptavidin or anti-His6", "conditions": "one partner purified"}}, "data": [{"binder": "B1", "values": [{"measurement": "Kd", "setting": "[1]", "result": 0.79, "unit": "nM"}, {"measurement": "Kd", "setting": "[2]", "result": 0.93, "unit": "nM"}]}, {"binder": "B2", "values": [{"measurement": "binding result", "setting": "[3]", "result": "no binding (tested: up to 20 μM (methods))"}, {"measurement": "Kd", "setting": "[4]", "result": "~2.5", "unit": "nM"}]}, {"binder": "B3", "values": [{"measurement": "binding result", "setting": "[3]", "result": "binds"}, {"measurement": "Kd", "setting": "[4]", "result": "~100", "unit": "nM"}, {"measurement": "binding result", "setting": "[5]", "result": "binds"}, {"measurement": "binding result", "setting": "[6]", "result": "binds"}, {"measurement": "binding result", "setting": "[7]", "result": "binds"}, {"measurement": "binding result", "setting": "[8]", "result": "binds"}]}, {"binder": "B4", "values": [{"measurement": "Kd", "setting": "[4]", "result": "~1500", "unit": "nM"}, {"measurement": "binding result", "setting": "[8]", "result": "binds"}]}, {"binder": "B5", "values": [{"measurement": "binding result", "setting": "[9]", "result": "binds"}, {"measurement": "binding result", "setting": "[10]", "result": "binds"}, {"measurement": "binding result", "setting": "[11]", "result": "binds"}, {"measurement": "binding result", "setting": "[12]", "result": "binds"}]}]}
